Assay results from patent publication US7598354 (NATIONAL RESEARCH COUNCIL OF CANADA, dated 2009).

Biological target: T1, soybean agglutinin (SBA)-alkaline phosphatase conjugate (soybean, UniProt P05046 33-285, conjugated to alkaline phosphatase (EY Laboratories))
T1 construct: Lectin; Alkaline phosphatase part not described; also called GalNAc-specific lectin; SBA lectin
Experiment: Western blot of 2D gel probed with SBA-alkaline phosphatase conjugate

T1 sequence (P05046 33-285 limits assumed): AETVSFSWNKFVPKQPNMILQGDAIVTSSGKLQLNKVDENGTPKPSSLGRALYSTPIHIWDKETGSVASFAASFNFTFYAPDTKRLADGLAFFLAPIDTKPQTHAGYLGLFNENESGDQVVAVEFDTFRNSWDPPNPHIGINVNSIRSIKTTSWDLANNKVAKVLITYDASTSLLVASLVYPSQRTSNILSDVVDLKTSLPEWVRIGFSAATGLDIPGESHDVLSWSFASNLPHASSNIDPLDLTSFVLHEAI

B1: Cj0169, superoxide dismutase (Fe; SodB) (enzyme)
chain: MFELRKLPYDTNAFGDFLSAETFSYHHGKHHNTYVTNLNNLIKDTEFAGKDLVSIIKTSNGGVFNNAAQVYNHDFYFDCIKPSTGCGCGGSCQSIDANLQAALEKEFGSLENFKAEFIKGATGVFGSGWFWLVYNTKNQKLEFVGTSNAATPITEDKVPLLVVDVWEHAYYVDHRNARPAYLEKFYAHINWEFVAKAYEWALKEGMGSVSFYANELHPVK
binding result: no binding (tested: 10 µg/mL)

B2: Cj0332c, nucleoside diphosphate kinase (Ndk) (enzyme)
chain: MEKTLSIIKPDAVKKGVIGKILDRFESNGLRIAAMKKVQLSKEQAENFYAVHKERPFFKDLVEFMISGPVVVSILEGEGAVLKNRDLMGATNPKEAKAGTIRADFAESIDANAVHGSDSLENAKIEIEFFFKPNEIC
binding result: no binding (tested: 10 µg/mL)

B3: Cj0638c, inorganic pyrophosphatase (Ppa) (enzyme)
chain: MNLSKIKIGDIPNKINAVIEIPYGSNIKYEIDKDSGAIMVDRVMASAIFYPANYGFIANTLADDGDPVDILVLNEYPIQAGAVIPCRLIGVLIMEDESGMDEKLLAVPNSKIDARYDNIKTYTDLPQATLNKIKNFFETYKILEPNKWVKVQDFKDEKAAIEILEKAIKNYK
binding result: no binding (tested: 10 µg/mL)
